Blank lines part the entries; values can stand above or below the binder they belong to.
Columns and labels:
[1] = target: T1, kelch like family member 40 (human, UniProt Q2TBA0 1-621); experiment: protein array
T1 construct: on protein array; also called KLHL40
T1 sequence: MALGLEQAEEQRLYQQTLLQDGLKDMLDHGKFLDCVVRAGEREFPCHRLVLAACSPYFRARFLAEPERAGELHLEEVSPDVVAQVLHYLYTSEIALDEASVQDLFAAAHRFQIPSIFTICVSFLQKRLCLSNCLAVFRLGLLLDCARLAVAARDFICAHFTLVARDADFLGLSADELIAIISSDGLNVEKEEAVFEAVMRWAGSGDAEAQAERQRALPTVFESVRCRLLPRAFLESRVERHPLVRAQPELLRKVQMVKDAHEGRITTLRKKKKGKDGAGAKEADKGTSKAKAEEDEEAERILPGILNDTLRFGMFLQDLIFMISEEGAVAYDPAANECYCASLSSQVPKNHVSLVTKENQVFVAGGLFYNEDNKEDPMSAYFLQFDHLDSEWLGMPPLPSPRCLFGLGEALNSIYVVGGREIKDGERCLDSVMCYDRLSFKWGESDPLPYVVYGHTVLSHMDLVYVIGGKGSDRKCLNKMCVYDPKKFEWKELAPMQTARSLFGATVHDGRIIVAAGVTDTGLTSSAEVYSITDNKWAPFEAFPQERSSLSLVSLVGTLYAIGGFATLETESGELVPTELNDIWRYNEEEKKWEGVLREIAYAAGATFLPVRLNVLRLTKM

[2] = target: T2, membrane palmitoylated protein 2, transcript variant 3 (human, UniProt Q14168 1-576); experiment: protein array
T2 construct: on protein array; also called MPP2
T2 sequence: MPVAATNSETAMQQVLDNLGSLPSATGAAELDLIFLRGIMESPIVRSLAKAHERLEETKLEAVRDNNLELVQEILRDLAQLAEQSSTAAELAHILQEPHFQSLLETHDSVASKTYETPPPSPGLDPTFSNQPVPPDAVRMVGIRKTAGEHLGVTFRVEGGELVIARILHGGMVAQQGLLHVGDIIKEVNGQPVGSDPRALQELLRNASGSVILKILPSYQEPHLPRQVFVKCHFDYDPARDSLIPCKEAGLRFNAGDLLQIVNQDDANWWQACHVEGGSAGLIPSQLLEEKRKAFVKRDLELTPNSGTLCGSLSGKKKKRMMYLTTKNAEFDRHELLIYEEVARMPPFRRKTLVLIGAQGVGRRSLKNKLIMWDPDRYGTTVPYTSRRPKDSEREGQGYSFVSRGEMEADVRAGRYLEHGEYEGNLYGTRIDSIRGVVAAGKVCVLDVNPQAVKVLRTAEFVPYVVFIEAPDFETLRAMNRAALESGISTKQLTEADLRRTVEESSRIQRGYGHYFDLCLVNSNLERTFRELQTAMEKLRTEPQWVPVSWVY

[3] = target: T3, glycogen phosphorylase L, transcript variant 1 (human, UniProt P06737 2-847)
T3 construct: HuProt array protein, full-length recombinant from yeast; also called PYGL
T3 sequence: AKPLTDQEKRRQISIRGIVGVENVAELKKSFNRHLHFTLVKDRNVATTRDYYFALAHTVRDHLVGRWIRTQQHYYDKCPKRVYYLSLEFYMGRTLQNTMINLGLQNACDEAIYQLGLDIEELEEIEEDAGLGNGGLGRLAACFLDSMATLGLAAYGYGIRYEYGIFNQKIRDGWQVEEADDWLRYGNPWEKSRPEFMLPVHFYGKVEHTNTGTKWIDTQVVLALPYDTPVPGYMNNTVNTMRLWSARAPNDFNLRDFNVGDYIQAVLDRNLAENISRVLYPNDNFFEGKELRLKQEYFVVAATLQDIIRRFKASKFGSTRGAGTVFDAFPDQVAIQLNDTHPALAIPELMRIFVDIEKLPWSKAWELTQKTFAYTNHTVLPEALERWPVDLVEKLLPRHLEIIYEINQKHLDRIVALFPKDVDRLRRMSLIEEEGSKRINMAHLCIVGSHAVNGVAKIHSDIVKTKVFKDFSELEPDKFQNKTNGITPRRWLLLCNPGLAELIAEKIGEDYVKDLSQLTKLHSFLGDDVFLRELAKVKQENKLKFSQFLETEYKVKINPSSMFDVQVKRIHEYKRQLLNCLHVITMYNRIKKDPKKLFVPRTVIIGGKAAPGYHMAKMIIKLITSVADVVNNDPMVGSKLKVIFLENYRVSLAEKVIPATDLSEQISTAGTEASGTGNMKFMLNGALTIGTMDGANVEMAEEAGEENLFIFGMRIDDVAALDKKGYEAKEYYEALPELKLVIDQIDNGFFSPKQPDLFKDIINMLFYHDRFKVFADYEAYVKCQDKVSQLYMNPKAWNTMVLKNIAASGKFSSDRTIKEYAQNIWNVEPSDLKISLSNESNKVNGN

Reticulocalbin 3 = target: T4, Reticulocalbin 3 (human, UniProt Q96D15 21-328)
T4 construct: HuProt array protein, full-length recombinant from yeast; also called RCN3
T4 sequence: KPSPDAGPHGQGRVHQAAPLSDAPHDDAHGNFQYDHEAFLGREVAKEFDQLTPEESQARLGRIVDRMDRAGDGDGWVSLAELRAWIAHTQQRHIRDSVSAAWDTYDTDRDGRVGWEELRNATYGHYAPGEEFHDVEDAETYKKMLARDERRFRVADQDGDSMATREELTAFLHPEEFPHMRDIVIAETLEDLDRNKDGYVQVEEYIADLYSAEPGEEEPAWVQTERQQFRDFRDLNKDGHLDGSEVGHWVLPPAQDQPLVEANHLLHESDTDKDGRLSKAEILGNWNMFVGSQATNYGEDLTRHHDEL

[4] = target: T5, synaptotagmin 12, transcript variant X4 (human, UniProt Q8IV01 1-421)
T5 construct: HuProt array protein, full-length recombinant from yeast; also called SYT12
T5 sequence: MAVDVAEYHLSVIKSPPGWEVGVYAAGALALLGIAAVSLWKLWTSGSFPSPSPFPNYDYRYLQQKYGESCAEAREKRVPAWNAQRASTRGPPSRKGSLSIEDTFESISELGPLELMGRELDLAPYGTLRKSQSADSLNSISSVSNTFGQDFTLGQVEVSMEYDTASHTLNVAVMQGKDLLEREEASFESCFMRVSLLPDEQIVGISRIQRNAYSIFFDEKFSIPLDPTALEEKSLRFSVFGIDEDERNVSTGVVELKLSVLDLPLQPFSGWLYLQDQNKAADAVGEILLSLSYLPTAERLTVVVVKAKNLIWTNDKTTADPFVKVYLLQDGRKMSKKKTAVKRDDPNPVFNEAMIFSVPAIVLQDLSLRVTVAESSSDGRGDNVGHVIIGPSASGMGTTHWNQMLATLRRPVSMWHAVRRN

[5] = target: T6, SNAP associated protein, transcript variant 1 (human, UniProt O95295 2-136)
T6 construct: HuProt array protein, full-length recombinant from yeast; also called SNAPIN
T6 sequence: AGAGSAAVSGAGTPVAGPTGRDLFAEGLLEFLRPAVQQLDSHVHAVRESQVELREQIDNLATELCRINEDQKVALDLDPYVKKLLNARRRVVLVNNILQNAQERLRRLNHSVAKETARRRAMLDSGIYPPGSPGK

[6] = target: T7, zinc finger DHHC-type containing 1, transcript variant 1 (human, UniProt Q8WTX9 1-485)
T7 construct: HuProt array protein, full-length recombinant from yeast; also called ZDHHC1
T7 sequence: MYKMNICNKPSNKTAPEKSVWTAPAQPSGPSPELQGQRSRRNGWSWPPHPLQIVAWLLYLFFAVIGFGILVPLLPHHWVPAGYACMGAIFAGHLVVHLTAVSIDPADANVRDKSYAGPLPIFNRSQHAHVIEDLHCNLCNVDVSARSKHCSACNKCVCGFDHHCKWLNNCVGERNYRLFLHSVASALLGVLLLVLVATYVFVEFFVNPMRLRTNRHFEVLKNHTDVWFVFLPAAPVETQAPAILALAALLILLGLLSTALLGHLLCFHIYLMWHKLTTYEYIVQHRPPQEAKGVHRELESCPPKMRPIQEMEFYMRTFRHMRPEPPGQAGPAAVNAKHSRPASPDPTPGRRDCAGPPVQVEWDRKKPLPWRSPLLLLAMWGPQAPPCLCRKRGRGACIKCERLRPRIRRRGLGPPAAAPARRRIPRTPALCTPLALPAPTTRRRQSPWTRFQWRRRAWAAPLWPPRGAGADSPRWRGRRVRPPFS

[7] = target: T8, retinoid X receptor alpha, transcript variant 1 (human, UniProt P19793 1-462)
T8 construct: HuProt array protein, full-length recombinant from yeast; also called RXRA
T8 sequence: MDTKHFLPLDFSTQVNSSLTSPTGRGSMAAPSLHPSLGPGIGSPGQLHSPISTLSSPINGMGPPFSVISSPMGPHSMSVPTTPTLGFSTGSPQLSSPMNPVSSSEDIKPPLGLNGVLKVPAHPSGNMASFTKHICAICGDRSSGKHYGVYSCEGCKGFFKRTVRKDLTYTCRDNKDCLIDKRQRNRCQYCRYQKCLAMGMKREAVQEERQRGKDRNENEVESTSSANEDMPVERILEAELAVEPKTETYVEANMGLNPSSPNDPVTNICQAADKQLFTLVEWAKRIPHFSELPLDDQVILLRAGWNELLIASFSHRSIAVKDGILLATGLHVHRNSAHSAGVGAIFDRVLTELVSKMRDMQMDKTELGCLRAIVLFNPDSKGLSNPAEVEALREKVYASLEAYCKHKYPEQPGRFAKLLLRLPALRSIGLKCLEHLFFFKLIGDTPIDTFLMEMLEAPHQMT

binding result [5]: binds
B3: TBLA1006 (antibody, V domains shown)
VH: VQLVDSGGGLVQPGRSLRLSCAASGFVFDDYAMHWVRQVPGKGLEWVSGISWNSVSIGYADSVKGRFTISRDNAKNSLYLQMNSLRPEDAALYYCVKSFSAEYYYYYYGMDVWGQGTTVTVSS
VL: LYVLTQPPSVSVAPGTTAWISCGGNNIGIKSVHWYQQKPGQAPLLVISYDSDRPSVIPERFSVSNSGNTVTLTISRVEAGDEADYYCQVWDNGHSHWVFGGGTKLTVLG
notes: detected with anti-human IgG Fc

binding result [6]: binds
B4: TBLA1003 (antibody, V domains shown)
VH: EVQLVESGGGLIQPGRSLRLSCAASGFTFEDYAMHWVRQAPGKGLEWVSGISWNSGNIGYADSVKGRFTISRDNAKNSLYLQMHSLRPEDTALYYCAKDINFFGLGTGGGAMDVWGQGTTVTVSS
VL: DIQMTQSPSYVSASVGDRVTITCRASQGIDVWLAWYQQKPGKAPKLLIYTASSLQSGVPSRFSGSGGGTEFTLTISSLQPEDFATYYCQQSNSFPGTFGPGTKVDVKR
notes: as for B3

binding result [7]: binds
B5: TBLA1004 (antibody, V domains shown)
VH: QITLKESGPTLVKPTQTLTLTCTFSGFSLSTSGVGVGWIRQPPGKALEWLALIYWDDDKRYSPSLKSRLTITKDTSKNQVVLTMTNMDPVDTATYYCAHRAIVGLFDYWGQGTLVTVSS
VL: PSVLTQPPSASGTPGQRVTISCSGSSSNIGSNYVYWYQQLPGTAPKFLIYRNNQRPSGVPDRFSGSKSGTSASLAISGLRSEDEADYYCAAWEDSLSGPVFGGGTKLTVL
notes: as for B3

The remaining lines, values behind:

B1: TBRE1012 (antibody, V domains shown)
VH: QVQLQESGPGLVKPTQTLSLTCTVSGGSISSGSYYWNWIRQPAGKGLEWIGNIYTSGNTDYNPSLKSRVTISLDTSKNQVSLNLTSVTAADTAVYYCATTPSSSWYWYFDPWGQGTLVTVSS
VL: DLQMTQSPSSLSASIGDRVTITCRASQSISTYFNWYQQKPGKAPKLLIYAASSLQSGVPSRFSGSGSGTDFTLTITSLQPEDFATYYCQQTYSNPWTFGQGTKVDFKR
notes: VH/VL only
binding result [1]: binds
binding result [2]: binds

B2: TBLA1007 (antibody, V domains shown)
VH: QVQLVQSGAEVKKPGASVKVSCKASGYTFTNYGFSWVRQAPGQGLEWMGRITTYNRDTIYAQKFQGRVTMTTDTSTSTAYMELRSLRSDDTAVYFCARVVPGDSVYGAFDIWGQGTMVTVSS
VL: DIQMTQSPSSLSASVGDRVTITCRASQSISSYLNWYQQKPGRAPRLLIYAASRLQIGVPSRFSGSGSGTDFTLTISSLQPEDFATYYCQQSYRMPCSFGQGTKLEI
notes: as for B3
binding result [3]: binds
binding result (Reticulocalbin 3): binds
binding result [4]: binds

Reference: patent publication US20220204643A1 (published 2022)
